The target of test [1] is ribonucleoprotein (RNP). As to the kind of experiment: AtheNA Multi-Lyte ANA, Ab at 12.5 ug/ml.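 Also: monoclonal antibodies screened for binding to a panel of nuclear autoantigens (SSA, SSB, Sm, RNP, Scl-70, Jo-1, dsDNA, CentB, histones), with anti-HIV and anti-RSV antibodies as controls.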
Test [2] concerns the target T1, Sm (sphingomyelin).
T1 construct: in an ANA panel of nuclear antigens Sm is usually the Smith ribonucleoprotein antigen; Kept, but see recheck
As to the kind of experiment: AtheNA Multi-Lyte ANA, Ab at 12.5 ug/ml.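 Also: monoclonal antibodies screened for binding to a panel of nuclear autoantigens (SSA, SSB, Sm, RNP, Scl-70, Jo-1, dsDNA, CentB, histones), with anti-HIV and anti-RSV antibodies as controls.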

Test [3] addresses systemic lupus erythematosus autoantigen SSA. Nature of the test: AtheNA Multi-Lyte ANA, Ab at 12.5 ug/ml.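 Also: monoclonal antibodies screened for binding to a panel of nuclear autoantigens (SSA, SSB, Sm, RNP, Scl-70, Jo-1, dsDNA, CentB, histones), with anti-HIV and anti-RSV antibodies as controls.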
The target in test [4] is T2, sclerosis autoantigen (Scl-70) (UniProt P11387 2-765, limits assumed).
T2 sequence (looked up): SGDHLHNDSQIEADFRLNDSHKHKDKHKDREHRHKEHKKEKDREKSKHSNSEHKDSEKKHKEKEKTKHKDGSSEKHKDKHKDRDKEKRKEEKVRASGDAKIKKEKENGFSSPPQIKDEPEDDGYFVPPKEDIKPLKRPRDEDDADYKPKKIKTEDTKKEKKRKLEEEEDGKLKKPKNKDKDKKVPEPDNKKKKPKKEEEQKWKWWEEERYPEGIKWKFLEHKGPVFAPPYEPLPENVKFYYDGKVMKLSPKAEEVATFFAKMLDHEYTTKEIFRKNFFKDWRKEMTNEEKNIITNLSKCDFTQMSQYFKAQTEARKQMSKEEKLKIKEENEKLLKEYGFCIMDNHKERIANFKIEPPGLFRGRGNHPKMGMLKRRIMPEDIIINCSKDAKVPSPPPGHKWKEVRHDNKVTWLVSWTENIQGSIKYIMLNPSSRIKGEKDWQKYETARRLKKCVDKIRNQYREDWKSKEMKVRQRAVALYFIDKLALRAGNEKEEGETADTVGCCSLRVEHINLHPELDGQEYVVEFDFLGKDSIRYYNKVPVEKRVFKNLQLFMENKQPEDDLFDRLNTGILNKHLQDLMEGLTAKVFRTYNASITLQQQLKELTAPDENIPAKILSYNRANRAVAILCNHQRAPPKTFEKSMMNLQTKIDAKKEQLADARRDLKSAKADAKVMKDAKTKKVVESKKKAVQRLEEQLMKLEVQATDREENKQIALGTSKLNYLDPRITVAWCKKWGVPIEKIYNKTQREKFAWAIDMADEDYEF
As to the kind of experiment: AtheNA Multi-Lyte ANA, Ab at 12.5 ug/ml.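 Also: monoclonal antibodies screened for binding to a panel of nuclear autoantigens (SSA, SSB, Sm, RNP, Scl-70, Jo-1, dsDNA, CentB, histones), with anti-HIV and anti-RSV antibodies as controls.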

Test [5] concerns the target T3, Complement Factor H (CFH) protein, full-length (human, UniProt P08603 19-1231).
T3 construct: also called full-length CFH; native CFH
As to the kind of experiment: immunoblot, SDS-PAGE under non-reducing conditions, antibody at 0.5 µg/ml, anti-human IgG-HRP, chemiluminescence; lane numbers as in Table 10.

In test [6] the target is ribonucleoprotein (RNP). As to the kind of experiment: AtheNA Multi-Lyte ANA, Ab at 25 ug/ml.
The target of test [7] is T1, Sm (sphingomyelin). Nature of the test: AtheNA Multi-Lyte ANA, Ab at 25 ug/ml.
Test [8] addresses systemic lupus erythematosus autoantigen SSA. As to the kind of experiment: AtheNA Multi-Lyte ANA, Ab at 25 ug/ml.
For test [9], the target named is T2, sclerosis autoantigen (Scl-70). Nature of the test: AtheNA Multi-Lyte ANA, Ab at 25 ug/ml.
The target of test [10] is T4, GPPPPIDNGDITSFP(GGGK-biotin).
T4 construct: also called biotinylated 15-mer peptide; biotinylated 19-mer
T4 peptide: GPPPPIDNGDITSFPGGGK(Biotin)
As to the kind of experiment: ELISA: biotinylated peptide captured on immobilized Neutravidin, antibody at 0.5 µg/ml, anti-human IgG-HRP/ABTS, OD 405 nm.

For test [11], the target named is ribonucleoprotein (RNP). As to the kind of experiment: AtheNA Multi-Lyte ANA, Ab at 50 ug/ml.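 Also: monoclonal antibodies probed against a nuclear autoantigen panel (SSA, SSB, Sm, RNP, Scl-70, Jo-1, dsDNA, CentB, histones), with anti-HIV 4E10 and palivizumab as control antibodies.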
Test [12] has as its target T1, Sm (sphingomyelin). As to the kind of experiment: AtheNA Multi-Lyte ANA, Ab at 50 ug/ml.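 Also: monoclonal antibodies probed against a nuclear autoantigen panel (SSA, SSB, Sm, RNP, Scl-70, Jo-1, dsDNA, CentB, histones), with anti-HIV 4E10 and palivizumab as control antibodies.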
The target in test [13] is systemic lupus erythematosus autoantigen SSA. Nature of the test: AtheNA Multi-Lyte ANA, Ab at 50 ug/ml.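 Also: monoclonal antibodies probed against a nuclear autoantigen panel (SSA, SSB, Sm, RNP, Scl-70, Jo-1, dsDNA, CentB, histones), with anti-HIV 4E10 and palivizumab as control antibodies.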
Test [14] addresses T2, sclerosis autoantigen (Scl-70). As to the kind of experiment: AtheNA Multi-Lyte ANA, Ab at 50 ug/ml.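 Also: monoclonal antibodies probed against a nuclear autoantigen panel (SSA, SSB, Sm, RNP, Scl-70, Jo-1, dsDNA, CentB, histones), with anti-HIV 4E10 and palivizumab as control antibodies.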
Test [15] addresses T5, reduced form of Complement Factor H (CFH), treated with TCEP (human, UniProt P08603 19-1231, disulfides reduced with 10 mM TCEP).
T5 construct: also called reduced CFH; reduced form of CFH
As to the kind of experiment: immunoblot, SDS-PAGE under reducing conditions, antibody at 0.5 µg/ml, anti-human IgG-HRP, chemiluminescence; lane numbers as in Table 10.

The target of test [16] is T6, 15-mer peptide GPPPPIDNGDITSFP (SEQ ID NO: 114) (human).
T6 construct: Immobilized for SPR; also called parent peptide
T6 peptide: GPPPPIDNGDITSFP
As to the kind of experiment: assay and antigen not given; Example 10, epitope mapping on the 15-mer peptide.

In test [17] the target is ribonucleoprotein (RNP). Nature of the test: AtheNA Multi-Lyte ANA, Ab at 6.25 ug/ml.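 Also: monoclonal antibodies screened for reactivity against a panel of nuclear autoantigens, with an anti-HIV and an anti-RSV monoclonal antibody serving as controls.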
For test [18], the target named is T1, Sm (sphingomyelin). Nature of the test: AtheNA Multi-Lyte ANA, Ab at 6.25 ug/ml.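 Also: monoclonal antibodies screened for reactivity against a panel of nuclear autoantigens, with an anti-HIV and an anti-RSV monoclonal antibody serving as controls.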
Test [19] deals with systemic lupus erythematosus autoantigen SSA. Nature of the test: AtheNA Multi-Lyte ANA, Ab at 6.25 ug/ml.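 Also: monoclonal antibodies screened for reactivity against a panel of nuclear autoantigens, with an anti-HIV and an anti-RSV monoclonal antibody serving as controls.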
For test [20], the target named is T2, sclerosis autoantigen (Scl-70). As to the kind of experiment: AtheNA Multi-Lyte ANA, Ab at 6.25 ug/ml.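 Also: monoclonal antibodies screened for reactivity against a panel of nuclear autoantigens, with an anti-HIV and an anti-RSV monoclonal antibody serving as controls.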

Changes are numbered by the printed parent chain. Where no end group is shown, it is not given here. The star is where a group is joined. Biotin = O=C1N[C@H]2[C@H](CS[C@H]2CCCCC(=O)*)N1

T5 sequence (P08603 19-1231 limits assumed): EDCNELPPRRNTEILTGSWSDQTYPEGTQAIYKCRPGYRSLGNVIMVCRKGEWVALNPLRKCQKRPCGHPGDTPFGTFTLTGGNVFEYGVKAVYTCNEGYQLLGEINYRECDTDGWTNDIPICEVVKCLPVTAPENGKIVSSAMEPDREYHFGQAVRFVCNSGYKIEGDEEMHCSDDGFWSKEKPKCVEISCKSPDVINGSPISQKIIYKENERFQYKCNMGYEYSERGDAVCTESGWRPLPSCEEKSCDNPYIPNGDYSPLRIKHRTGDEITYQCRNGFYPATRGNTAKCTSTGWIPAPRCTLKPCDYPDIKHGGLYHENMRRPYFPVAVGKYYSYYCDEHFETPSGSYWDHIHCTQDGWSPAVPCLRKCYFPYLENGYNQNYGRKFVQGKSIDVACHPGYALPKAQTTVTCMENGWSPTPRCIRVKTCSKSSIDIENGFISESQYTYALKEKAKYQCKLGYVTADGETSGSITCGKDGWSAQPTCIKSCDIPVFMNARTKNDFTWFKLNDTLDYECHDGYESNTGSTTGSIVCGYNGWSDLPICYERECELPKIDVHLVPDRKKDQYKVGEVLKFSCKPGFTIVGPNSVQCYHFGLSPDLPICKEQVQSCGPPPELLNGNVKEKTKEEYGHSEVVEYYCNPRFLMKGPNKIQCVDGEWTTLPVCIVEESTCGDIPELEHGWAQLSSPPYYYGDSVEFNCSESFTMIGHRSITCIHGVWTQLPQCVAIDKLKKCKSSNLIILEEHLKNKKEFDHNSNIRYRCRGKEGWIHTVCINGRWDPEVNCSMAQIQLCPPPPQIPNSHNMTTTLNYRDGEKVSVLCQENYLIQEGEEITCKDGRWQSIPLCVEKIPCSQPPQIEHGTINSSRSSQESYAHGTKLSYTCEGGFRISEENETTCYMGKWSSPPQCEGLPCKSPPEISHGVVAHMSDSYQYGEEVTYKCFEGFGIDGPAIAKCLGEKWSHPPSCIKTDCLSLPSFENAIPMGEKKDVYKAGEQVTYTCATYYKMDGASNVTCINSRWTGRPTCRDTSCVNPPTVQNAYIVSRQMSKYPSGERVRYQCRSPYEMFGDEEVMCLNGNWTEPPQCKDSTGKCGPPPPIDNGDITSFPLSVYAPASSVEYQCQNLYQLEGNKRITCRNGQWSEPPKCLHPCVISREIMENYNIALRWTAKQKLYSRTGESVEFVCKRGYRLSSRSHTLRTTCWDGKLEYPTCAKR
T3 sequence (P08603 19-1231 limits assumed): as above

B1: Ab7961/293i (antibody, IgG1, V domains shown)
VH: LVESGGGVVQPGKSLRLSCVASGFTFSSYGMHWVRQAPGKGLEWVAVMSFDGKTKYYADSVKGRFTISRDNPKNTLYLQMNSLRSEDTAVYYCAKGGAAAAVFDSWGQGILLTVSS
VL: MTQSPNSLAVSLGGRATINCKTSQSILYRSNNKNYLAWYQHKSGQPPKLLIYWASTRESGVPDRFSGSGSRTDFTLTISGLQAEDVAVYYCQQYYNPPWTFGQGTKVEIK
notes: Recombinant human antibody with IgG1 heavy chain backbone and kappa light chain constant; they begin at LVESGGG and MTQSP; also called mAb 7961; clone 24
Take B1: the AtheNA signal came to 6 in the test with ribonucleoprotein (RNP) [1]; 5 with Sm (sphingomyelin) [2]; 24 in test [3]; 3 in test [4]; 8 with ribonucleoprotein (RNP) [6]; 5 with Sm (sphingomyelin) [7]. Moreover, the AtheNA signal in [8] was found to be 31; in test [9], 3; with ribonucleoprotein (RNP) [11], 8; with Sm (sphingomyelin) [12] it was 6; in test [13] it was 40; in test [14], 3. In addition, the AtheNA signal with ribonucleoprotein (RNP) [17] worked out at 7; with Sm (sphingomyelin) [18] it was 4; in [19] it was 18; in test [20], 2. Moreover, the binding result in test [5], in test [10] and in test [15] was “binds” throughout. In test [16], this molecule came in with an EC50 of 0.0144 µg/mL.

B2: 7965/6000 (antibody, V domains shown)
VH: B1 VH
VL: B1 VL
notes: also called clone 12; H007965/K006000
Turning to B2, in [10], the binding result was “binds”.

B3: 7967/6002 (antibody, V domains shown)
VH: B1 VH with T25S, S28T, Q108P
VL: B1 VL with T22A, S43A, D63E, S79N
notes: also called clone 8; H007967/K006002
With B3, the binding result in test [10] was “binds”.

B4: Ab7964 (antibody, IgG1, V domains shown)
VH: LVESGGGVVQPGRSLRLSCAASGVTFSRYGMHWVRQAPGKGLEWVAVISYDEKTKYYADSVKGRFTISRDNSKNTLFLHMNRLRYEDTAVYYCAKGASSGAYFDYWGQGTLVTVSS
VL: not shown
notes: Recombinant human antibody with IgG1 heavy chain backbone and kappa light chain constant; they begin at LVESGGG and MTQSP; also called Ab7964/293i; mAb 7964
As for B4, the AtheNA signal amounted to 51 with ribonucleoprotein (RNP) [1]; 67 with Sm (sphingomyelin) [2]; 132 in test [3]; 56 with ribonucleoprotein (RNP) [6]; 96 with Sm (sphingomyelin) [7]; 168 in test [8]. The AtheNA signal with ribonucleoprotein (RNP) [11] stood at 62; with Sm (sphingomyelin) [12], 137; in test [13] it was 162; with ribonucleoprotein (RNP) [17], 44; in the test with Sm (sphingomyelin) [18] it was 47; in [19] it was 101. Moreover, the binding result in test [5], in test [10] and in [15] was “binds” throughout. Further, the EC50 in [16] stood at 0.0152 µg/mL.

B5: 7958/5992 (antibody, V domains shown)
VH: LVESGGGVVPPGKSLRLSCAASGFTFSLYGIHWVRQAPGKGLEWVAVISYDGNTKYYTDSVKGRFTISRDNAKNTIYLQMNSLRLDDTAVYYCAKGAANSATFDFWGRGTMVTVSS
VL: MTQSPDSLTLSLGERATINCRSSRTVLYRSNNKNYLAWYQHKPGQPPKLLMSWASTRETGVPDRFSGSGSGTHFTLTITSLQPEDVAVYYCQQYYSPPWTFGQGTKVEIR
notes: also called clone 4; H007958/K005992
In the case of B5, in test [10], the binding result is “binds”.

B6: 7982/6018 (antibody, V domains shown)
VH: B5 VH
VL: B5 VL
notes: also called clone 6; H007982/K006018
Regarding B6, the binding result in test [10] is on record as “binds”.

B7: 7963/5998 (antibody, V domains shown)
VH: B5 VH
VL: B5 VL
notes: also called clone 5; H007963/K005998
Regarding B7, the binding result in test [10] is “binds”.

B8: 7971/6005 (antibody, V domains shown)
VH: LVESGGGVVQPGRSLRLSCAASGFTFSRYGMHWVRQAPGKGLEWVAVMSYDGSTKYYADSVKGRFAISRDNPKNTLFLQMNSLRPDDTAVYYCAKGGAAAAVMDVWGKGTTVTVSS
VL: MTQSPDSLTVSLGERATISCKSSQRLLYSSNNKNYLAWYQQKPGQPPKLLMYWASTRESGVPDRFSGSGSGTDFSLTISSLQAEDVAVYYCQQYYNPPWTFGQGTKVEVK
notes: also called clone 14; H007971/K006005
B8: the binding result in [10] is on record as “binds”.

B9: 7983/6019 (antibody, V domains shown)
VH: EVQLVESGGGVVQPGRSLRLSCAASGFTFNRFGMHWVRQRQVPGKGLEWVAVISYDDNTKYYADSVKGRFTISRDNNKSTLYLQMSSLRVEDTAVYFCAKGSTAAAVLDYWGQGTLVTVSS
VL: DIVMTQSPDSLTLSLGERATINCKSSQSLFYRSNNKSYLAWYQQKPGQPPKLLIYWASVRESGVPDRFTGSGSVTDFTLTISSLRAEDVAVYYCQQYFTTPLTFGGGTKVAIK
notes: also called clone 15; H007983/K006019
B9: the binding result in test [10] is listed as “binds”.

B10: Ab7955 (antibody, V domains shown)
VH: LVESGGGVVRPGRSLRLSCVASGFTFNAYGMHWVRQGPGKGLEWLAVISYEGKTVYYADSVKDRFTISRDNSRNTVSLHLNNLRGEDTAVYYCAKGSASAAVLQHWGQGTLVSVTS
VL: MTQSPGSLAVSLGSRATINCKSSRSLLYRSNNKNYLAWYQQKPGQSPRLLIYWASSRESGVPDRFSGGGSGTSFTLTISSLQAEDVAVYYCQQYFNPPWTFGQGTKVEIK
notes: Recombinant human antibody with IgG1 heavy chain backbone and kappa light chain constant; also called mAb 7955; clone 19
B10: the AtheNA signal in the test with ribonucleoprotein (RNP) [1] turned out to be 8; with Sm (sphingomyelin) [2], 7; in test [3], 56; with ribonucleoprotein (RNP) [11] it was 13; with Sm (sphingomyelin) [12] it was 10; in [13] it was 92. The AtheNA signal is 4 with ribonucleoprotein (RNP) [17], 5 in the test with Sm (sphingomyelin) [18] and 32 in [19]. In addition, the binding result in test [10] is “binds”. In addition, the EC50 in test [16] stood at 0.00648 µg/mL.
